Laboratory results reported in patent publication US20220143148A1, “COMPOSITIONS AND METHODS FOR MODULATING CGRP SIGNALING TO REGULATE INTESTINAL INNATE LYMPHOID CELLS” (The Broad Institute, Inc., priority 2019, published 2022).

Tested on: small intestinal immune cells
Assay: Droplet-based scRNA-seq of small intestinal immune cells (LP and PP), OVA vs PBS, clustering and differential expression
Type: in vivo, mouse
Text: To comprehensively characterize small intestinal immune cells, Applicants generated scRNA-Seq profiles for 58,067 immune cells collected from lamina propria (LP) and Peyer's patch (PP) regions at steady state and after induction of a type 2 inflammatory reaction to ovalbumin (OVA) (Brandt et al., 2003) (FIGS. 1A and 8A). To ensure sufficient representation of rare cells, Applicants combined a normalization strategy—removing by flow sorting either a portion of IgD+ naïve B cells, which are the most abundant cell type in PPs, or all CD19+ and CD3+ T cells (FIG. 8B, Methods)—with profiling of a sufficiently large number of cells number (P>0.99 to recover at least 15 cells from each cluster, Methods) by massively parallel scRNA-seq (Haber et al., 2017) (Methods). Applicants obtained 36,797 and 21,270 high quality cells passing initial filtering (Methods) from PP and LP regions, respectively.
Overall, Applicants annotated 27 cell subsets across the two compartments, spanning T cells, B cells, ILCs, dendritic cells (DCs), myeloid cells and stromal cells, in frequencies ranging from 0.07% to 14%. Briefly, Applicants first partitioned the cells from the PP regions by unsupervised clustering (Methods) into 46 clusters, retained the 97% of cells that were robustly assigned cell identities in each cluster (Methods), assigned the cells from the LP regions to the 46 clusters using a classifier (Methods), and visualized the data with scvis (Ding et al., 2018), a deep generative model-based method (FIGS. 1B and 8C, Methods). Next, Applicants identified genes that were differentially expressed between the cells in each cluster and the remaining cells (Table 1, Methods), as well as between pairs of clusters (Table 2), to elucidate identities of similar cell types/states. Applicants excluded from downstream analysis clusters mostly consisting of contaminants from epithelium, likely doublets, or cells with a small number of Unique Molecular Identifiers (UMIs) (FIGS. 1C and 8D), or lacking distinct markers (Methods). Altogether, Applicants retained 27 clusters spanning 85% of the cells and each associated with distinct marker genes (FIG. 8E, Methods).
To induce allergic reaction to OVA, 6 to 7 weeks old mice were sensitized twice, two weeks apart, with 50 μg of OVA plus 1 mg of aluminum potassium sulfate adjuvant via intraperitoneal injection. Two weeks later, mice were orally administered with 50 mg of OVA on every other day for a total of five times. 1 μg of α-CGRP peptide was administered simultaneously when indicated. Mice were deprived of food for 3-4 hours in cages with wood chip bedding for limiting antigen degradation in the stomach before each intragastric challenge.
Isolation of cells from Peyer's patches (PPs). Peyer's patches (PPs) were carefully dissected from the small intestine under a stereo microscope using a fine scissor, pierced once with a fine forcep. Tissues were digested in freshly made digestion buffer (RPMI-1640 containing 100 μg/ml Liberase™ and 50 μg/ml DNase I at 37° C. on a roto-mixer. After 15 min, tissues were very gently mixed using a 1 ml pipette. The supernatant was collected and added to ice-cold MACS buffer (pH 7.4; PBS plus 2% FCS and 2 mM EDTA). Pre-warmed (37° C.) fresh digestion buffer was added to the remaining tissues. After rotation at 37° C. for 15 min, the mixture was vigorously mixed using a 1 ml pipette for 1 min. Supernatants from the two steps were combined and passed through 70 μm filters and stained for FACS (below).
Isolation of cells from the lamina propria (LP). The small intestines were opened longitudinally and washed in ice-cold PBS. For scRNA-seq, roughly 0.5 cm of fragments from each of the distal, middle and proximal regions without visible PPs were collected. Epithelial cells were dissociated by tissue rotation in pre-warmed (37° C.) PBS containing 10 mM EDTA at 37° C. for 15 min, followed by additional incubation on ice for 15 min. Tissues were then shaken vigorously. […]

B1: OVA (protein, UniProt P01012 2-386, looked up)
Ovalbumin: GSIGAASMEFCFDVFKELKVHHANENIFYCPIAIMSALAMVYLGAKDSTRTQINKVVRFDKLPGFGDSIEAQCGTSVNVHSSLRDILNQITKPNDVYSFSLASRLYAEERYPILPEYLQCVKELYRGGLEPINFQTAADQARELINSWVESQTNGIIRNVLQPSSVDSQTAMVLVNAIVFKGLWEKAFKDEDTQAMPFRVTEQESKPVQMMYQIGLFRVASMASEKMKILELPFASGTMSMLVLLPDEVSGLEQLESIINFEKLTEWTSSNVMEERKIKVYLPRMKMEEKYNLTSVLMAMGITDVFSSSANLSGISSAESLKISQAVHAAHAEINEAGREVVGSAEAGVDAASVSEEFRADHPFLFCIKHIATNAVLFFGRCVSP
Cluster ID 4, PP, OVA vs PBS
  D16Ertd472e: LN (average fold change): −0.412
  Dnaja1: LN (average fold change): −0.300
  Dnajb9: LN (average fold change): −0.322
  Egln3: LN (average fold change): −0.350
  Fam46a: LN (average fold change): −0.500
  Fibp: LN (average fold change): −0.268
  Furin: LN (average fold change): −0.203
  Gatad1: LN (average fold change): −0.316
  Gcnt2: LN (average fold change): −0.352
  Gimap3: LN (average fold change): 0.275
  Git2: LN (average fold change): 0.350
  Gnb1: LN (average fold change): −0.255
  H2-T23: LN (average fold change): −0.260
  Herpud1: LN (average fold change): −0.214
  Icos: LN (average fold change): −0.291
  Il2ra: LN (average fold change): 0.378
  Il18r1: LN (average fold change): 0.193
  Irf2: LN (average fold change): 0.312
  Irs2: LN (average fold change): −0.372
  Itgav: LN (average fold change): −0.394
  Klf13: LN (average fold change): −0.255
  Klrk1: LN (average fold change): −0.613
  Leng9: LN (average fold change): −0.375
  Map3k14: LN (average fold change): −0.515
  Mast4: LN (average fold change): −0.207
  Mbnl2: LN (average fold change): −0.436
  Minos1: LN (average fold change): 0.218
  Morf4l2: LN (average fold change): −0.252
  Neat1: LN (average fold change): 0.447
  Nedd8: LN (average fold change): 0.234
  Plekhg1: LN (average fold change): −0.229
  Ppp1r16b: LN (average fold change): −0.157
  Ppp2ca: LN (average fold change): −0.432
  Ptger2: LN (average fold change): 0.347
  Ptpn7: LN (average fold change): 0.323
  Raf1: LN (average fold change): 0.457
  Ramp3: LN (average fold change): −0.380
  Rassf5: LN (average fold change): 0.506
  Rcn2: LN (average fold change): −0.225
  Rel: LN (average fold change): −0.354
  Rgs1: LN (average fold change): −0.221
  Rgs3: LN (average fold change): 0.447
  Rnf19b: LN (average fold change): −0.242
  Rpa3: LN (average fold change): 0.541
  S100a6: LN (average fold change): 0.370
  S100a10: LN (average fold change): 0.215
  Saraf: LN (average fold change): −0.187
  Sat1: LN (average fold change): 0.222
  Scn1b: LN (average fold change): −0.273
  Sec11a: LN (average fold change): 0.283
  Serpina3g: LN (average fold change): 0.347
  Serpinb6b: LN (average fold change): −0.432
  Ssna1: LN (average fold change): 0.346
  Taf7: LN (average fold change): −0.409
  Taf10: LN (average fold change): −0.422
  Tagap: LN (average fold change): 0.423
  Tcrg-C1: LN (average fold change): 0.484
  Tgoln1: LN (average fold change): −0.209
  Timm13: LN (average fold change): 0.230
  Tnf: LN (average fold change): 0.465
  Trim8: LN (average fold change): 0.530
  Trps1: LN (average fold change): −0.444
  Tsc22d3: LN (average fold change): 0.359
  Tspan32: LN (average fold change): 0.324
  Ttc19: LN (average fold change): −0.499
  Tuba4a: LN (average fold change): −0.342
  Tubb4b: LN (average fold change): −0.252
  Txk: LN (average fold change): −0.188
  Vegfa: LN (average fold change): −0.252
  VgIl4: LN (average fold change): −0.302
  Zc3hav1: LN (average fold change): −0.303
  Zfand5: LN (average fold change): −0.245
Cluster ID 5, PP
  1810037l17Rik: percentage of expressing cells in OVA-treated group: 0.446
  Bcl2: percentage of expressing cells in OVA-treated group: 0.863
